Experimental data: patent US20200297760A1, “COMPOSITIONS AND METHODS FOR REDUCING IMMUNE RESPONSES AGAINST CHIMERIC ANTIGEN RECEPTORS” (Juno Therapeutics, Inc., priority 2015, published 2020)
Values belong to the binder of their own block, whether it stands above or below them.

What was measured:
Conditions in all cases: remark: other sources report otherwise
HLA-A*03:01 (human) = assay: REVEAL MHC-peptide binding assay, recombinant HLA
HLA-A*02:01 (human) = assay: REVEAL MHC-peptide binding assay, recombinant HLA
[1] = target: HLA-A*02:01 (recombinant MHC class I molecule) (human); assay: REVEAL MHC-peptide binding assay, recombinant MHC, score normalised to positive control = 100
[2] = target: HLA-A*03:01 (recombinant MHC class I molecule) (human); assay: as above
[3] = target: HLA-A*11:01 (recombinant MHC class I molecule) (human); assay: REVEAL MHC-peptide binding assay, stabilisation of ternary complex with recombinant MHC
[4] = target: HLA-B*08:01 (recombinant MHC class I molecule) (human); assay: as above

In Vitro Score (% of positive control peptide) (HLA-A*03:01 (human)): 18 | In Vitro Score (% of positive control peptide) (HLA-A*02:01 (human)): 5.8
B1: … (peptide)
peptide: IIFWVQRGR

In Vitro Score (% of positive control peptide) (HLA-A*03:01 (human)): 0.5 | In Vitro Score (% of positive control peptide) (HLA-A*02:01 (human)): 2.2
B2: … (peptide)
peptide: AFIIFWVAR

In Vitro Score (% of positive control peptide) [1]: 1.2 | In Vitro Score (% of positive control peptide) [2]: 0.7
B3: Synthetic peptide … (K28R) (peptide)
peptide: VAFIIFWVR

In Vitro Score (% of positive control peptide) (HLA-A*03:01 (human)): 10.4 | In Vitro Score (% of positive control peptide) (HLA-A*02:01 (human)): 2.4
B4: … (peptide)
peptide: IFWVKRGSK

In Vitro Score (% of positive control peptide) (HLA-A*03:01 (human)): 30.1 | In Vitro Score (% of positive control peptide) (HLA-A*02:01 (human)): 4.7
B5: … (peptide)
peptide: IIFWVHRGR

In Vitro Score (% of positive control peptide) (HLA-A*03:01 (human)): 1.9 | In Vitro Score (% of positive control peptide) (HLA-A*02:01 (human)): 3
B6: … (peptide)
peptide: WVKRGSKKL

In Vitro Score (% of positive control peptide) (HLA-A*03:01 (human)): 0 | In Vitro Score (% of positive control peptide) (HLA-A*02:01 (human)): 37.3
B7: … (peptide)
peptide: FIIFWVHRG

In Vitro Score (% of positive control peptide) (HLA-A*03:01 (human)): 16.2 | In Vitro Score (% of positive control peptide) (HLA-A*02:01 (human)): 13.6
B8: … (peptide)
peptide: IIFWVKRGS

In Vitro Score (% of positive control peptide) (HLA-A*03:01 (human)): 36.7 | In Vitro Score (% of positive control peptide) (HLA-A*02:01 (human)): 6.1
B9: … (peptide)
peptide: IFWVQRGRK

In Vitro Score (% of positive control peptide) [3]: 34.6 | In Vitro Score (% of positive control peptide) [4]: 0.1
B10: … synthetic peptide K28R (SEQ ID NO: 100) (peptide)
peptide: VAFIIFWVR

In Vitro Score (% of positive control peptide) (HLA-A*03:01 (human)): 37.8 | In Vitro Score (% of positive control peptide) (HLA-A*02:01 (human)): 7.1
B11: … (peptide)
peptide: IFWVHRGRK

In Vitro Score (% of positive control peptide) (HLA-A*03:01 (human)): 25.3 | In Vitro Score (% of positive control peptide) (HLA-A*02:01 (human)): 2.6
B12: … (peptide)
peptide: IIFWVSRGR

In Vitro Score (% of positive control peptide) (HLA-A*03:01 (human)): 15.9 | In Vitro Score (% of positive control peptide) (HLA-A*02:01 (human)): 82.2
B13: … (peptide)
peptide: IIFWVKRGL

In Vitro Score (% of positive control peptide) (HLA-A*03:01 (human)): 24.3 | In Vitro Score (% of positive control peptide) (HLA-A*02:01 (human)): 1.7
B14: … (peptide)
peptide: IIFWVKRGR

In Vitro Score (% of positive control peptide) (HLA-A*03:01 (human)): 39.2 | In Vitro Score (% of positive control peptide) (HLA-A*02:01 (human)): 1.3
B15: … (peptide)
peptide: IFWVSRGRK

In Vitro Score (% of positive control peptide) (HLA-A*03:01 (human)): 53.7 | In Vitro Score (% of positive control peptide) (HLA-A*02:01 (human)): 1
B16: … (peptide)
peptide: IFWVARGRK

In Vitro Score (% of positive control peptide) (HLA-A*03:01 (human)): 0.3 | In Vitro Score (% of positive control peptide) (HLA-A*02:01 (human)): 0.3
B17: … (peptide)
peptide: AFIIFWVHR

In Vitro Score (% of positive control peptide) (HLA-A*03:01 (human)): 0.3 | In Vitro Score (% of positive control peptide) (HLA-A*02:01 (human)): 4.5
B18: … (peptide)
peptide: AFIIFWVSR

In Vitro Score (% of positive control peptide) (HLA-A*03:01 (human)): 26.9 | In Vitro Score (% of positive control peptide) (HLA-A*02:01 (human)): 2.4
B19: … (peptide)
peptide: IFWVKRGLK
